Results: US20240190940A1 (published 2024)
Values belong to the binder of their own block, whether it stands above or below them.

Legend:
[1] = biological target: Q61K RAS 10-mer peptide … presented by HLA-A*01:01 on cells (human); assay: cell-based or functional assay
[2] = biological target: T1, NRAS Q61K (Q61K RAS; same sequence in KRAS and HRAS Q61K) peptide on HLA-A*01:01 (human); assay: multimer staining
T1 peptide: ILDTAGKEEY

[3] = biological target: T2, NRAS Q61K peptide on HLA-B*27:01 (human); assay: cytokine release
T2 peptide: ILDTAGKEEY

[4] = biological target: T3, NRAS Q61K peptide on HLA-A*02:01 (human); assay: cytokine release
T3 peptide: ILDTAGKEEY

[5] = biological target: T4, NRAS Q61R peptide on HLA-A*01:01 (human); assay: cytokine release
T4 peptide: ILDTAGREEY

[6] = biological target: T5, NRAS Q61K peptide on HLA-C*07:01 (human); assay: cytokine release
T5 peptide: ILDTAGKEEY

[7] = biological target: T6, NRAS Q61K peptide on HLA-B*08:01 (human); assay: cytokine release
T6 peptide: ILDTAGKEEY

- 4-1BB upregulation by TCR-transduced CD8+ effector cells (flow cytometry), autologous DC pulsed with various peptide concentrations [1]: > 0.01 µg/ml
B1: TCR 3795, cysteine-substituted, LVL-modified chimeric TCR (human variable regions, murine constant regions) (TCR)
TCR alpha: AQKVTQAQTEISVVEKEDVTLDCVYETRDTTYYLFWYKQPPSGELVFLIRRNSFDEQNEISGRYSWNFQKSTSSFNFTITASQVVDSAVYFCALSESHNNAGNMLTFGGGTRLMVKPNIQNPEPAVYQLKDPRSQDSTLCLFTDFDSQINVPKTMESGTFITDKCVLDMKAMDSKSNGAIAWSNQTSFTCQDIFKETNATYPSSDVPCDATLTEKSFETDMNLNFQNLLVIVLRILLLKVAGFNLLMTLRLWSS
TCR beta: NAGVTQTPKFQVLKTGQSMTLQCAQDMNHNSMYWYRQDPGMGLRLIYYSASEGTTDKGEVPNGYNVSRLNKREFSLRLESAAPSQTSVYFCAASQNTEAFFGQGTRLTVVEDLRNVTPPKVSLFEPSKAEIANKQKATLVCLARGFFPDHVELSWWVNGKEVHSGVCTDPQAYKESNYSYCLSSRLRVSATFWHNPRNHFRCQVQFHGLSEEDKWPEGSPKPVTQNISAEAWGRADCGITSASYQQGVLSATILYEILLGKATLYAVLVSTLVVMAMVKRKNS

- binding result [2]: recognises
- binding result [3]: no recognition
- binding result [4]: no recognition
- binding result [5]: no recognition
- binding result [6]: no recognition
- binding result [7]: no recognition
B2: 3795 (TCR, V domains shown)
Valpha: AQKVTQAQTEISVVEKEDVTLDCVYETRDTTYYLFWYKQPPSGELVFLIRRNSFDEQNEISGRYSWNFQKSTSSFNFTITASQVVDSAVYFCALSESHNNAGNMLTFGGGTRLMVKP
Vbeta: NAGVTQTPKFQVLKTGQSMTLQCAQDMNHNSMYWYRQDPGMGLRLIYYSASEGTTDKGEVPNGYNVSRLNKREFSLRLESAAPSQTSVYFCAASQNTEAFFGQGTRLTVV
